Experiment: label from the status in PepcDB records

| Sequence | protein production |
| --- | --- |
| MSDSTLTGNAPVRRNITRKNVIIGLLLLLFVLIALWCHGRPGSELGLLEFTPLVALAILSLIGVDIVLAVISSIIIAMIMTSTGLPEMGTMLAKSTGSFIATVGLIIMLGAGVGEVATRTGAAVELVKFVVHRIGLSSQTRVKFGIVASSILICGSLGTMAGGNAIIVAVIIPVAAAVRLTPPTVAALMMTAGSVGLFTGPFTPSTVTILSLGGLSYPDYLLYVGLPMSAVTLLAGWVMAGRIQKMTEGKLRYDVDLAEKPQEDLSAAQQRRRKLSALAFAATIIVMAIVGVVIKAGFSFAIIVMLLVALMTGLVGGLRPTQILQALYHGCGRLVWMFILYWLYNPILELMDGLHAYQGLLEYTQPLLEGISPAWLCFSIFAFNIIGHVPGAAVAQMTFTHKIFGPMLMAAGVPPQGTTAVLLASSQVDWFGPFPSSDMFGQMGLAQSTHLKYMLYNGWAIVVANIILFALLFQILV | failed |
| MDLNNNKSNNIVKTLARWCLLLQAFMISSNTVALKEPDYVNMNITIRNSMTGLIRPEIVYRCQSKRKDYGWHRSPKPGVQFSFPIILIKGETKIPAIHICQIRSVLGTATLVIQNTYLDAEMCPRSSCAHEATPKGIVFRGLEWDFKTVFPKLKPVEYLELPWTPWPNRT | failed |
| MPARPAYSRLQIALHWLVAILIAAAWLTHEGMGRALETRIETGASGFEGNTPHVWLGIAVFVAVLIRIVVRRVQGAPGPLPGATPLMEKAATWGHRLLYLLMVLTPALGALAWNAHSEAVGELHETVGSALMLVALGHALVALWHQYVKKDGSLTRITRPQG | failed |
| MSQNLQPPIPLLVPETAPFSEEQRAWLNGFFAGLVSLDGQGVTALSPDQAAALLAGGPAPVAEDDDGGAPWHDQSLPIGERMQLAEGKPLRWKLMAAMAQQDCGQCGYDCRNYSGAIFDGQETRLNLCAPGGKDTARMVKTLTEQIGAAPTLDNAPSLAADAAPVVALPPRGTSRDNPATAKVLSRKRLNKPGSEKETWHVEFELEDCLSYEAGDSFGLFPTNDPALVDAVLHALGAPAEFPIAQSTLRQTLLDSVSLSPAPDMLFQLISYITGGDKRKKARSLASGEDPDGDAATLDVLAALEKFPGLRPDPEAFIEALDPLQPRLYSISSSPKTTPGRLSLTVDCVRYAIGKRQRLGVCSTGLAERVRPGETLRAYVQKAHHFALPSDPNQPIIMIGPGTGIAPFRAFLHERQAIQAPGKNWLFFGHQRSASDFFYEDELKAMKTAGHLTRLTLAWSRDSGEKIYVQDRIREVGRDLWSWLAEGASLYVCGDAKRMAKDVERALVDIVAQHGARSAAEATAFVSELKKQGRYQQDVY | failed |
| MAPKPVAVDAGHYRGTWLEIGRMPMLLTDGCVAGYSTYRQGKSADEVLVEDGCREGTPQGKLKTINGVGKIEDFASTKAKMRVRYPLLITFNYWVLYKSPDKSWFISANPSTEDVWVYARSVPSKAKLNRMMMKVRELGYDVKKLEFPLEHHHHHH | not failed |
| MNTHYVGPVLYTPKENVSEKLLKLFDADQPIIFCYTARFYDNVGESGKAIFDNMIKIADKIDASIIISTGNKKDELLALDIASKELKSGKVSIVDYVPLDMAYEKSDLVIHHGGHGSCLAQFYYGVPSVIIPTHTEREYNARMCEKLHVGKMLPRRELNSANLKNCINDVLNDITYKKSVRDWKEKVSGLEHHHHHH | failed |
| MKRVAIFASGSGTNAEAIIQSQKAGQLPCEVALLITDKPGAKVVERVKVHEIPVCALDPKTYPSKEAYEIEVVQQLKEKQIDFVVLAGYMRLVGPTLLGAYEGRIVNIHPSLLPAFPGLHAIEQAIRANVKVTGVTIHYVDEGMDTGPIIAQEAVSIEEEDTLETLTTKIQAVEHRLYPATLHKLLSK | not failed |
| MKVFIAGGRGRVGSLLADNLEAKGIEVVSGGLEDGIDVISGKGLTEALAGVDTIVNVLNTPRFDAEGAISFFEGAINNLTAEGERAGVRHHIVLSIVGVGQGDASEVGYYLGKVAQEKAVRSASIPATIIRATQFQSYIPVLIDQHTVDGKVIAPRSFVQPVELDEVIELLAEAATTLEPGSEVEIAGPDRFYHDDLFRATLADRGDDREVVTVDAEGAPDVMVPRGAYRTGTVRYPITGIPTV | failed |
| MNNSVSSGYDVIGDVHGCASQLEVLLHKLGYETGASGEYRHPERQAIFVGDLIDRGGEQLRVLEVVKAMVDAGSALIVMGNHEFNALAYHTEWPVGSGKYLRPHDDPDNPWSAKNTKQHAAFLDQVRGEDRQRCLEWFATIPLWLDLGELRVVHACWHDDSIGVVENLCGSNAPFGDVSHLVAASTEDDPLYEAVETLLKGPEINLVAHGQPEYHDKDGIPRDNARVQWWNSDARTLRDIAEMGGGFTTSTGEPYPPLPEIALTGADRSYIYTAEIPVFYGHYWRQGSPKHRHDWTDYTACVDFSAVKGGRLTAYRWSGESTIKAENYVTAD | failed |
| MSLSEIKHWVFDMDGTLTIAVHDFAAIREALSIPAEDDILTHLAALPADESAAKHAWLLEHERDLAQGSRPAPGAVELVRELAGRGYRLGILTRNARELAHVTLEAIGLADCFAEADVLGRDEAPPKPHPGGLLKLAEAWDVSPSRMVMVGDYRFDLDCGRAAGTRTVLVNLPDNPWPELTDWHARDCAQLRDLLSAEGHHHHHH | not failed |
| MLTGRRYLLAFTPEQEEFAEKIGDACRVVWNTALEQRRQYRRRGAFIGYVEQARQMAEAKKDFPWLAEAPSHTLQQTLRDLERACKTHGTFKVRWRSKRKNAPTFRFPDPKQITVERISRRWGRVKLPKLGWTRFRWTRPLGGQLRNATVLKDGGRWYISFCVEDGLMESAPNGKPPVGVDRGVTVAVATSSGWMRDREFVTPGEAVRLKRLQQQLARQRKGSNRRAATRAKLTKLNARIRARRTDFLAWTANRLTCDHGLVVVEDLNIRNMTASAKGTLAEPGRNVAAKAGLNRAILAKGWGGLLTALEHKARYHGSRILRVPPAFTSQTCHACGHCAPDNRESQAEFRCRACGHQANADVNAAKNILAAGLAVTGRGDLAVGRSVKRQPPKVEAA | failed |
| MFYHDFRTMLIRLRAQFIKELLCILRDPRNRVVVFVPPLMQLLIFSYAATMEVRNLDIAVYNQDTGRAAQELVWHLEAARFIAQVHHVHSNTALREQLVQGKVIAAIAIPADFSRTVAVSGSGHAQVLVDGRRSNSGQIVVGYLSSIARDIRFTADTAPIPETSVTVRHWFNPNLVYLWFMVPGLTGTLAFFSALMITALSIARERELGTFDQLLVSPASTLEIILSKSLPALVISSLLALLMITLAIWFFRIPFTGSFGLLLIGLVLFILSAVGIGLVISAISMTQQQAILGGFVIGVPTVLISGFATPVENMPLLLQWLAQAIPLTHFLIIIEGCFLKALPPRDVLANLWPLAVIAFTMLPIAMIFARSRLQ | failed |
| KGTLRRITEIAEVSGIEGESIQLNFLYKYDPAKDELIRTEVPSRFIQTLSYHTGLSIEELKWEIEKRRLILDWMIEKGIRRIDEVGYYIKEFYIDEEELLKKIE | failed |
| MAQVPAGKNRSGQLSKQTGDAWENQARRWLEGQGLRFIAANARERGGEIDLIMRDGTVTVFIEVRYRRSARYGDAAASVTPQKQQRLLKAARLWLCRQ | failed |
| YKGQYFTPPHIAQAMAAMTLMDCHSIIEKRGFMKLQEPTCGSGVMIIGSYNHLRQEHFNPQQQLWVRAQDLDFTTAMMCYIQMTLLHIPGEVIIGNTLT | failed |
| MVYSTTTGRFCGLFCLRDQMPVSTNRHPYSENTMEIIVNGEARAATPMSMLELLRSLDIDPRRVAVELNHDILPKGEYESTILNDGDRIEIVHFVGGGLEHHHHHH | not failed |
| MTETKTIRFLSIIGCLLAGMAASCSSRQVAPNEEGISVQKMTGFPEGEPGFSLGVSACYAGIYQGELLIAGGCNFPETPAAEGGKKKFYQGIYAADASADSVFVWRKVGQLPVAAAYGVSVSTPRGIVCVGGSNENGSLSTVYRLSLSDDKQAVIVDTLPSLPCTMDNMSGSVVDYTLFVAGGNVNGKPSNGLYCLNLGNPETGWQQLPDFPGAPRVQPVCVGQRKENETLLYLWGGFSGAFDGRSATLSTDGYCYSPSLQQWQPVSTPIGSDSVPVALGGGAGIALTDSLILCTGGVNKDIFLSALQREEMMKAAVTGGNQAAVDSLKSEAKTYMLHPAEWYRFNDRILIYNTRRDKWEEAVRSQDVARAGAALTTGQGQTFFNINGELKPGIRTPEIAKIMID | failed |
| TIEARTAQSTPSAPPQKVMCVSMGSTTVRVSWVPPPADSRNGVITQYSVAYEAVDGEDRGRHVVDGISREHSSWDLVGLEKWTEYRVWVRAHTDVGPGPESSPVLVRTDEDVPSGPPRKVE | not failed |
| MAARLLFRRSSQILRSIQRNPQISSSFESPPCPIFHSLTTASPDPSRLSSLTFLRSLSIARRGPTRPKKIDIGAKARQMQNRRLWTYALTFSCIAGFVVIVLNQFQDQLVFYLTPSDAMEKFAENPTKNKFRLGGLVLEGSVAQPAASQEMEFVITDLITDILVRYKGSLPDLFREGHSVVVEGFIKPYTDEVRKEVSTKPISKKARNLDCFFSATEVLAKHDEKYMPQEVAAAIEKNKKIIEAAATEQAAEVAAS | failed |
| MSTYTARLGGRTHSFPSLAALLAAASPERSGDRLAGLAADSAEARVAARWALAEVPLARFLAEPVIPYEDDDVTRLIVDTHDARAFAPVAGLCVGEFREWLLSDAADAGSLAALAPGLTPEMVAAVSKLMGNADLVAVARKARVVTAFRSTIGLPGRLATRLQPNHPTDDPAGVAAALLDGLLLGSGDAVIGINPATDSPKAVRDLLELLDGVIRRYAIPTQSCVLCHVTTSIDLMERGAPVDLVFQSIAGTQAANASFGVTLGLLDEAYDAARGLGRGTAGQNALYFETGQGSALSANAHHGVDQQTVEARAYAVARRYDPLLVNTVVGFIGPEYLYDGRQILRAALEDHFCGKLLGLPMGLDICYTNHADADDDDIATMLTMLGVAGASFVICTPGGDDIMLNYQSASYHDALYLREVLGLRPAPEFEDWLSRIGLLDDAGAIRDVTGTAHPLTAIGRELAA | failed |
| MKSQISWKVGGQQGEGIESTGEIFATAMNRKGYFLYGYRHFSSRIKGGHTNNKIRVSKSPVHAISDDLDILIAFDQETIELNHHEMREDSIIIADSKAKPQKPENCVAQLIELPFTSTAKELGTALMKNMVAIGATSALMDLNTSTFETLIDNMFSKKGNKVVDMNIQALNMGYDLMKQQVTNVNGDFTLENGSGHPHLYMIGNDAIGLGAIAAGSRFMSAYPITPASEIMEYMIANLPKVDGTVVQTEDEIAAATMAIGANYAGVRGFTASAGPGLSLMMESIGLSGMTETPLVIINTQRGGPSTGLPTKQEQSDLMQMIYGTHGDIPKIVVAPTDAEDAFYLTMEAFNLAEEYQCPVILLSDLQLSLGKQTVKTLDYNKIDIRRGEIIQSDIERAEDDKAYFKRYALTASGVSPRPIPGVKGGIHHVTGVEHNEEGKPSEAPMNRQNQMEKRMRKTESLVINNPVLLNEHEDEADILYIGFISTKGAIGEGAERLERHGVKVNTMHIRQLHPFPKDIVQQAINKASKVIVAEHNYQGQLSSILKMNTQVNDKLVNQTKYDGKPFLPYEIEEKGLEIAKELKELV | failed |
| MNIGVIILAAGEGKRFGGDKLLAKIDNTPIIMRTIRIYGDLEKIIIVGKYVNEMLPLLMDQIVIYNPFWNEGISTSLKLGLRFFKDYDAVLVALGDMPFVTKEDVNKIINTFKPNCKAVIPTHKGERGNPVLISKSLFNEIEKLRGDVGARVILNKIKIEELCFIECSEGVLIDIDKKEDLMRLRDFHP | failed |
| MAGAMRKMAVYLGLVEDDGYDGRGFDPDDDFEPELDPEPERDHRRHEPAHQSHGAHQSQRDEEVRVVQPPAQREPMPRAASLAAESSRPARIAPVASITQERASLEKSAPVIMPKVVSEREPYRITTLHPRTYNEARTIGEHFREGTPVIMNLTEMDDTDAKRLVDFAAGLVFGLHGSIERVTQKVFLLSPANVDVTAEDKARIAEGGFFNQSLEHHHHHH | failed |

From a protein production outcome set (Wang et al. 2014)
